Source: patent US20210079110A1 (SCHOOL JURIDICAL PERSON THE KITASATO INSTITUTE, published 2021)

How the values were obtained:
SEQ ID NO 69 = molecular target: T1, SEQ ID NO 69; assay: peptide array of 15-mers, antibody diluted to 1/100 and 1/500
T1 construct: 15-residue KK-LC-1 peptide of the peptide array
T1 peptide: KLVELEHTLLSKGFR
Description: (§1) An antigen of the monoclonal antibody produced by the hybridoma cell line (accession number: NITE BP-02527) was identified by epitope mapping. Specifically, first, 73 types of 15-amino acid residue peptides in which a position on an N-terminus side was shifted by one amino acid residue each were synthesized based on the amino acid sequence of the KK-LC-1 protein to produce a peptide array. Amino acid sequences of the 73 types of peptides are shown in SEQ ID NOs: 13 to 85, respectively.
(§2) Subsequently, the peptide array was reacted with a monoclonal antibody to identify peptides having reactivity. The monoclonal antibody was diluted to 1/100 and 1/500 and the resultants were each reacted.

SEQ ID NO 70 = molecular target: T2, SEQ ID NO 70; assay: as above
T2 construct: 15-residue KK-LC-1 peptide of the peptide array
T2 peptide: LVELEHTLLSKGFRG
Description: as §1, §2

[1] = molecular target: T3, VELEHTLLSKGFRGA (SEQ ID NO: 71); assay: as above
T3 construct: 15-residue KK-LC-1 peptide of the peptide array
T3 peptide: VELEHTLLSKGFRGA
Description: as §1, §2

[2] = molecular target: T4, LSMVENKLVELEHTL (SEQ ID NO: 63); assay: as above
T4 construct: 15-residue KK-LC-1 peptide of the peptide array
T4 peptide: LSMVENKLVELEHTL
Description: as §1, §2

SEQ ID NO 64 = molecular target: T5, SEQ ID NO 64; assay: as above
T5 construct: 15-residue KK-LC-1 peptide of the peptide array
T5 peptide: SMVENKLVELEHTLL
Description: as §1, §2

SEQ ID NO 65 = molecular target: T6, SEQ ID NO 65; assay: as above
T6 construct: 15-residue KK-LC-1 peptide of the peptide array
T6 peptide: MVENKLVELEHTLLS
Description: as §1, §2

SEQ ID NO 66 = molecular target: T7, SEQ ID NO 66; assay: as above
T7 construct: 15-residue KK-LC-1 peptide of the peptide array
T7 peptide: VENKLVELEHTLLSK
Description: as §1, §2

SEQ ID NO 67 = molecular target: T8, SEQ ID NO 67; assay: as above
T8 construct: 15-residue KK-LC-1 peptide of the peptide array
T8 peptide: ENKLVELEHTLLSKG
Description: as §1, §2

SEQ ID NO 68 = molecular target: T9, SEQ ID NO 68; assay: as above
T9 construct: 15-residue KK-LC-1 peptide of the peptide array
T9 peptide: NKLVELEHTLLSKGF
Description: as §1, §2

[3] = molecular target: T10, Kitakyushu lung cancer antigen-1 (KK-LC-1) protein (human (tissue slices of patients), UniProt Q5H943 1-113); assay: immunohistochemical staining of formaldehyde-fixed tissue slices
T10 construct: Endogenous protein in formaldehyde-fixed tissue slices (testis, seminoma, gastric tissue) stained by immunohistochemistry; also called NP_001017978.1
T10 sequence: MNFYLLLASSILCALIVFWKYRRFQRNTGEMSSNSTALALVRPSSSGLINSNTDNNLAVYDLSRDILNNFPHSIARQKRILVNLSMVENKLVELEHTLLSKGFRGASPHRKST
Description: Tissue slices of a normal region and a tumor region of a patient suffering from a testicular tumor and tissue slices of a normal region and a tumor region in a gastric tissue of a patient suffering from a gastric cancer, which are fixed with formaldehyde, were stained by using the produced monoclonal antibodies.

[4] = molecular target: T11, peptide having the amino acid sequence set forth in SEQ ID NO: 1; assay: ELISA on immobilized peptide (Experimental Example 2) and absorption operation (Experimental Example 4)
T11 construct: Immunogen; immobilized on a 96-well plate in the ELISA and used for the absorption operation at 0.05 mg/mL; also called immunized peptide; peptide used for the immunization of the mouse
T11 peptide: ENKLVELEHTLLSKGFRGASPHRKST
Experimental: Reactivity of a monoclonal antibody was confirmed by an ELISA method using an immunized peptide as an antigen. Specifically, first, the peptide having the amino acid sequence set forth in SEQ ID NO: 1 was immobilized on a 96-well plate. Moreover, as a control, a 96-well plate in which only blocking was performed without immobilizing the peptide was used. A skim milk solution was used for the blocking.
Subsequently, the 96-well plate was blocked, a culture supernatant of each established hybridoma cell line was added thereto, and a reaction was performed. Moreover, for comparison, wells reacted with a normal mouse serum were also prepared. Next, the unreacted monoclonal antibody was washed off, the resultant was reacted with an anti-mouse secondary antibody, and a chromogenic substrate was added to develop color. Then, absorbance of each well was measured using a plate reader.
For the absorption operation of the monoclonal antibody, the peptide having the amino acid sequence set forth in SEQ ID NO: 1 was used at a final concentration of 0.05 mg/mL. Moreover, the absorption operation was performed overnight at 4° C. [0090] (a) to (d) of FIG. 3 are photographs showing results of immunohistochemical staining. In each case, a magnification was 200 times. […]

Measured: binding result

B1: monoclonal antibody produced by the hybridoma cell line having an accession number of NITE BP-02527 (antibody, V domains shown)
VH: EVQLQQSGPELVKPGASVKMSCKTSGYTSTEYTMHWVKQSHGQSLEWIGVIYPNNGDTSYNQKFRGKATLTVDKSSNTAYMELRSLTSEDSAVYYCARLGWQGFANWGQGTLVTVSA
VL: DIVMTQAAPSVPVTPGESVSISCRSSKSLLHSNGNTFLYWFLQRPGQSPQLLIYRMSNLASGVPDRFSGSGSGTAFTLRISRVEAEDVGVYYCMQHLEYPLTFGAGTKLELK
notes: Mouse hybridoma antibody, used as culture supernatant; also called 34B3; 277 34B3 20170123
binds: all assays above
